Data: article PMC7458321

Molecular target: GST F52(pBPa)
Test: cross-linking; photocrosslinking through pBPa in whole N. meningitidis cells, UV light for the indicated times up to 2 hours; bacterial extracts on Western blot with anti-GST mAb

GST F52(pBPa), sequence (P08515 2-218): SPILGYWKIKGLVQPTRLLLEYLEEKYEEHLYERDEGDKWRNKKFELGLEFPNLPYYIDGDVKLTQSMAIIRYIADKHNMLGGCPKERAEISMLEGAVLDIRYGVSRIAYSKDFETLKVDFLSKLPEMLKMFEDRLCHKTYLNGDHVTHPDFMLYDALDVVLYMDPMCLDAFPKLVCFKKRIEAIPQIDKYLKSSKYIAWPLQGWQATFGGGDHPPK

Q: For GST F52(pBPa) (enzyme), which stoichiometry N is on record?
A: 2
